# Measured values published in US20140370037A1 (published 2014).
# Numbering of substitutions follows the chain as printed.
# T1: human DLL3 antigen (human, UniProt Q9NYJ7 27-492, limits assumed)
# T1 construct: also called immobilized human DLL3; recombinant human DLL3
# T1 sequence (looked up): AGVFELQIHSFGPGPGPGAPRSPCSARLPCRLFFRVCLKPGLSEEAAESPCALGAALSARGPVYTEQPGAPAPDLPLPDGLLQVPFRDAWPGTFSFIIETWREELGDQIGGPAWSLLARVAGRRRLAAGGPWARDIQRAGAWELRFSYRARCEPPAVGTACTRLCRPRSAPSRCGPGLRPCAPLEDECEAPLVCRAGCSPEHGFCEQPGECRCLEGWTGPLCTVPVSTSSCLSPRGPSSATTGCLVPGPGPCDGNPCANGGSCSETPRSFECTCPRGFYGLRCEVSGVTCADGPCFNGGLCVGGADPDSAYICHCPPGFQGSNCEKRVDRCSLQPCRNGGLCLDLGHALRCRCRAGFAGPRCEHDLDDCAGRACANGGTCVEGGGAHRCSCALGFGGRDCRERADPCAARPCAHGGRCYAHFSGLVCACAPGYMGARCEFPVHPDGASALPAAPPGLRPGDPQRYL
# B1: SC16.147 (antibody, V domains shown)
# VH: QIQLVQSGPELTKPGETVKISCKASGYTFTDYSLHWVKQALGKGLKWMGWINTETGEPAYADDFKGRFAFSLETSASTAYLQINDLKNEDTTTYFCGIYDGYAMDYWGQGTSVTVSS
# VL: DIQMTQTASSLSASLGDRVTISCRASQDINNYLNWYQQKPDGTVKLLIYYTSRLHSGVPSRFSGSGSGTDYSLTISILEQEDIATYFCQQGDTLPWTFGGGTKLEIK
# notes: murine mAb
# B2: SC16.148 (antibody, V domains shown)
# VH: QIQLVQSGPELKKPGETVKISCKASGYTLTNYGMNWVKQAPGKGLKWMGWINTYTGEPTYADDFKGRFAFSLETSARIVYLQINNLKNEDTATYFCAKYEAHEGFVYWGQGTLVTVSA
# VL: QIVLTQSPAIMSASPGEKVTMTCSASSSVSYMYWYQQKPGSSPRLLIYDTSNLASGVPVRFSGSGSGTSYSLTISRMEAEDTATYYCQEWSNNPLTFGDGTKLELK
# notes: murine mAb
# B3: SC16.143 (antibody, V domains shown)
# VH: QVQLQQSGPELVKPGASVRISCKASGYTFTSYYIHWVKQRPGQGLEWIGWIYPGNGNTKYNEKFKGKATLTADKSSSTAYMQISSLTSEDSAVYFCARERWLLLWFAYWGQGTLVTVSA
# VL: DVLMTQTPLSLPVSLGDQASISCRSSQSIVHSNGNTYLEWYLQKPGQSPKLLIYKVSNRFSGVPDRFSGSGSGTDFTLKISRVEAEDLGVYYCFQGSHVPLTFGAGTKLELK
# notes: murine mAb
# B4: SC16.144 (antibody, V domains shown)
# VH: QIQLVQSGPELKKPGETVKISCKASGYTFTNYGMNWVKQAPGKGLKWVGWINTYTGEPTYADDFKGRFAFSLETSASTAYLQIDNLKNEDTATYFCARVGDYVGFDYWGQGTTLTVSS
# VL: SIVMTQTPKFLLVSAGDRVTITCKASQSVSNDVGWYQQKPGQSPKLLIYYASNRYNGVPDRFTGSGYGTDFTFTISTVQAEDLAVYFCQQDYSSPWTFGGGTKLEIK
# notes: murine mAb
# B5: hSC16.15 (antibody, V domains shown)
# VH: QVQLVQSGAEVKKPGASVKVSCKASGYTFTRYWIHWIRQAPGQGLEWMGYINPTTVYTEFNQNFKDRVTMTRDTSTSTVYMELSSLRSEDTAVYYCARGGSNFFDYWGQGTTVTVSS
# VL: AIQLTQSPSSLSASVGDRVTITCRASENIYYNLAWYQQKPGKAPKLLIYTANSLEDGVPSRFSGSGSGTDFTLTISSLQPEDFATYFCKQAYDVPPTFGGGTKLEIK
# notes: humanized (CDR grafted); also called humanized SC16.15
# B6: hSC16.34 (antibody, V domains shown)
# VH: QVQLVQSGAEVKKPGASVKVSCKASGYTFTNYGMNWVRQAPGQRLEWMGWINTYTGDPTYADDFKGRVTITRDTSASTAYMELSSLRSEDTAVYYCARIGGNSPSDYWGQGTTVTVSS
# VL: DIQMTQSPSSLSASVGDRVTITCKASQSVSNDVAWYQQKPGKVPKLLIYYASNRYSGVPSRFSGSGSGTDFTLTISSLQPEDVATYFCQQDYSSPWTFGGGTKVEIK
# notes: humanized (CDR grafted)
# B7: hSC16.56 (antibody, V domains shown)
# VH: B6 VH with R44G, D57E, I70M, R72T, A76T, S84R, E89D, G101D, N102S, T113L
# VL: EIVMTQSPATLSVSPGERATLSCKASQSVSNDVVWYQQKPGQAPRLLIYYASNRYTGIPARFSGSGSGTEFTLTISSLQSEDFAVYYCQQDYTSPWTFGQGTKLEIKR
# notes: humanized (CDR grafted)
# B8: hSC16.13 (antibody, V domains shown)
# VH: QITLKESGPTLVKPTQTLTLTCTFSGFSLSTSGMGVGWIRQPPGKALEWLAHIWWDDVKRYSPSLKSRLTITKDTSKNQVVLTMTNMDPVDTATYYCARIVSFDNDVVSAMDYWGQGTLVTVSS
# VL: DIQMTQSPSSLSASVGDRVTITCSASSSVSYMYWYQQKPGKAPKLLIYLTSNLASGVPSRFSGSGSGTDFTLTISSLQPEDFATYYCQQWRSNPFTFGQGTKLEIKR
# notes: humanized (CDR grafted)
# B9: SC16.15 (antibody, V domains shown)
# VH: QVQLQQSGAELAKPGASVKMSCKASGYTFTRYWIHWIKQRPGQGLEWIGYINPTTVYTEFNQNFKDKATLTADKSSTTASMQLSSLTSEDSAVYYCARGGSNFFDYWGQGTTLTVSS
# VL: DIQMTQSPASLAASVGETVAITCRASENIYYNLAWYQQKQGKSPQLLIYTANSLEDGVPSRFSGSGSGTQYSLKINSMQPEDSATYFCKQAYDVPPTFGGGTKLEIK
# notes: murine mAb
# Biological target: T1, human DLL3 antigen
# Assay: ELISA or flow cytometry screen
row,Binder,binding result
1,B1,binds
2,B2,binds
3,B3,binds
4,B4,binds

# Biological target: T1, human DLL3 antigen
# Assay: SPR, Biacore 2000, human DLL3 antigen
# Experimental: Various methods were used to analyze the binding and immunochemical characteristics of selected DLL3 modulators generated as set forth above. […] Affinities and kinetic constants kₒₙ and koff of the selected modulators were measured using bio-layer interferometry analysis on a ForteBio RED (ForteBio, Inc.) or surface plasmon resonance using a Biacore 2000 each according to the manufacturer's instructions.
# (§1) In this respect the humanized constructs (CDR grafted) were compared with “traditional” chimeric antibodies comprising the murine parent (or donor) heavy and light chain variable domains and a human constant region substantially equivalent to that used in the humanized constructs. With these constructs surface plasmon resonance (SPR) was conducted using a Biacore 2000 (GE Healthcare) to identify any subtle changes in rate constants brought about by the humanization process.
row,Binder,binding result
1,B5,binds
2,B6,binds
3,B7,binds
4,B8,binds

# Biological target: T1, human DLL3 antigen
# Assay: SPR, Biacore 2000, 25 and 12.5 nM human DLL3 antigen, 1:1 Langmuir model
# Experimental: as §1
row,Binder,Kd [nM]
1,B9,~0.2
